According to patent publication US20230257444A1, “FUSION PROTEIN AND COMBINATIONS THEREOF” (Agency for Science, Technology and Research, priority 2020, published 2023):

How the values were obtained:
SC5314 Candida albicans = assay: In vivo mouse monotherapy survival model (haematogenously disseminated candidiasis); design: species or system Balb/c mice
Procedure: 9 week old female Balb/c mice (InVivos, Singapore) were injected intraperitoneally with 1, 2 or 4 mg hDectin1-Fc in groups of 8 and the drug was allowed to distribute within the mice till its peak concentration at 2 hours based on the pharmacokinetic data. The mice were then injected intravenously with 0.5, 0.25 or 0.1 milion SC5314 Candida albicans cells to achieve a haematogenously disseminated candidiasis model. Another set of mice were injected with 0.5, 1, 2 mg hDectin1-Fc followed by intravenous injection with SC5314 Candida albicans 2 hours later. […] The mice were observed daily and moribund mice were euthanized and counted as dead the following day. Kaplan-Meier survival plots were made to track the survival overtime of the mice. Statistical analysis of the difference between mice treated with hDectin1-Fc or untreated was done with the Mantel-Cox log rank test.
To examine the effect of hDectin1-Fc passive immunization against reducing the fatality of haematogenously disseminated candidiasis, a Balb/c murine model of hDectin1-Fc at various doses in relation to Candida albicans inoculum was used. […] An untreated group without hDectin1-Fc but infected with the respective inoculum of Candida albicans was used as a control in each experimental set (FIG. 15). Survival in each group was monitored twice daily until all the mice had died or there was survival of 2 weeks from the last death. Moribund mice were euthanized and counted as part of the following day. […] The negative effect on survival of a high dose of hDectin1-Fc in relation to fungal inoculum is most apparent in the 4 mg hDectin1-Fc dose with 0.1 million Candida albicans (FIG. 15C) and 2 mg hDectin1-Fc with 0.05 million Candida albicans inoculum (FIG. 15D). […] The proximity between the 2 mg and 1 mg curves have a growing divergence as the fungal burden is reduced from 0.5 to 0.05 million (FIG. 15A-D).

FcγRI = target: T1, FcγRI (Homo sapiens, UniProt P12314); assay: Surface plasmon resonance: binding to immobilised Fc receptor; details: SPR
T1 construct: soluble ectodomains of FcR from R&D Systems; purchased R&D Systems 1257-FC-050
T1 sequence (P12314 16-292 limits assumed): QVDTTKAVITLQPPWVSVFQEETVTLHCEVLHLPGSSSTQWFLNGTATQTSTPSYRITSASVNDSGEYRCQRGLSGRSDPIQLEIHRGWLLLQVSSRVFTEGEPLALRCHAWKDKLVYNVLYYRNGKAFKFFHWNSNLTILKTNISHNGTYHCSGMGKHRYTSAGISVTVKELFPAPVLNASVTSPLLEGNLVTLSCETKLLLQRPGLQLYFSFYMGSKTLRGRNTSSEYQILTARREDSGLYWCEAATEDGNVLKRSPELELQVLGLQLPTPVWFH
Description: (§1) A BIAcore T200 SPR Biosensors (GE Healthcare) was used to assay the interaction of soluble ectodomains of FcR from R&D Systems with hDectin1-Fc and IgG1. Amine coupling via N-hydroxysuccinimide ester was formed on a CM5 sensor chip surface according to a procedure recommended by the manufacturer. Ectodomains were immobilized at acidic pH, resulting in the following densities: FcγRI (#1257-FC-050): 1919 RU, FcγRIIa (#1330-CD-050/CF):1766 RU, FcγRIIb/c (#1875-CD-050): 1972 RU, FcγRIIIa (#4325-FC-050): 2275 RU, FcγRIIIb (#1597-FC-050/CF): 2393 RU, FcRn (#8639-FC-050): 2836. A range of hDectin1-Fc/IgG1 concentrations was injected into flow cells at a flow rate of […], with a contact and dissociation time of 300 and 900 seconds, respectively. After each assay cycle, the sensor chip surface was regenerated using 10 mM NaOH. Binding response was recorded as resonance units (RU; 1 RU=1 pg/mm^2) continuously, with background binding automatically subtracted. Due to the polyclonal nature of the hDectin1-Fc/IgG1 recombinant proteins used, kinetic constants (kon, koff, t1/2) were not determined, and the KD was calculated by analyzing the concentration-dependence of the steady-state signal reached at the end of the injection using BIA evaluation version 3 software (GE Healthcare) and Scrubber version 2 software (BioLogic Software, Campbell, Australia). The steady-state response was plotted against the concentration of hDectin1-Fc/IgG1 and fitted using Origin software.
(§2) Antibody mediated immune activation depends on the strength of binding and affinity of the Fc to the various Fcγ receptors. Binding to the neonatal receptor FcRn is also important for the half-life in serum and the transcytosis across endothelial cells into various tissues. Surface plasmon resonance was used to evaluate the binding of the Immunoglobulin G's Fc of hDectin1-Fc to the various Fc receptors (FcγRI, FcγRIIa, FcγRIIb, FcγRIIIa, FcγRIIIb and FcRn) present on immune cells by flowing free hDectin1-Fc of various concentrations over immobilised Fc receptors (FIG. 11A-F). […] High affinity FcγRI(CD64) is expressed on macrophages, monocytes and neutrophils and low affinity FcγRIIIa (CD16a) is expressed on natural killer cells, monocytes, macrophages and neutrophils. Both CD64 and CD16a activating receptors have Immunoreceptor Tyrosine based Activation Motif (ITAM) signalling domain. FcγRI strongly binds IgG opsonized targets to trigger phagocytosis and a proinflammatory response of TNFα, IFNγ and production of oxidative species. FcγRIIIa likewise activate degranulation, phagocytosis, and oxidative burst.

FcγRIIIa = target: T2, FcγRIIIa (Homo sapiens, UniProt P08637, F176V); assay: as above; details: SPR
T2 construct: soluble ectodomains of FcR from R&D Systems; purchased R&D Systems 4325-FC-050
T2 sequence (P08637 17-208 F176V limits assumed): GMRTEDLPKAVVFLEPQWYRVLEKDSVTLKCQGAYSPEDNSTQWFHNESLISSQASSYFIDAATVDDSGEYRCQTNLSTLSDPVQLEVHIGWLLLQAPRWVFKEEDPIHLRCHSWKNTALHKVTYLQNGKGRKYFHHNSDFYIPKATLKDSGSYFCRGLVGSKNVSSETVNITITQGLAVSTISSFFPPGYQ
Description: as §1, §2

FcγRIIa = target: T3, FcγRIIa (Homo sapiens, UniProt P12318, H167R); assay: as above; details: SPR, steady state
T3 construct: soluble ectodomains of FcR from R&D Systems; purchased R&D Systems 1330-CD-050/CF
T3 sequence (P12318 34-217 H167R limits assumed): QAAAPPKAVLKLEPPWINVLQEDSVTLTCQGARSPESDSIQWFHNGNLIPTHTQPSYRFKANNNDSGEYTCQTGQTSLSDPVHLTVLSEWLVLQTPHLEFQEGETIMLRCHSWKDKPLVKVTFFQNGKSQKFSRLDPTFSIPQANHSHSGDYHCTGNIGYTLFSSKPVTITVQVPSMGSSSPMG
Description: as §1, §2

FcγRIIb = target: T4, FcγRIIb (Homo sapiens, UniProt P31994); assay: as above; details: SPR, steady state
T4 construct: soluble ectodomains of FcR from R&D Systems; purchased R&D Systems 1875-CD-050
T4 sequence (P31994 43-217 limits assumed): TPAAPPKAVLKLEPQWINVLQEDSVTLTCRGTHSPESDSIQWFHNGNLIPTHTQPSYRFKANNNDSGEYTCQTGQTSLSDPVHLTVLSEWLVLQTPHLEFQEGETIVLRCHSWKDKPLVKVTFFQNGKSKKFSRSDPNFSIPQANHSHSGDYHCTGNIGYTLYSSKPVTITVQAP
Description: as §1, §2

FcγRIIIb = target: T5, FcγRIIIb (Homo sapiens, UniProt O75015); assay: as above; details: SPR, steady state
T5 construct: soluble ectodomains of FcR from R&D Systems; purchased R&D Systems 1597-FC-050/CF
T5 sequence (O75015 17-200 limits assumed): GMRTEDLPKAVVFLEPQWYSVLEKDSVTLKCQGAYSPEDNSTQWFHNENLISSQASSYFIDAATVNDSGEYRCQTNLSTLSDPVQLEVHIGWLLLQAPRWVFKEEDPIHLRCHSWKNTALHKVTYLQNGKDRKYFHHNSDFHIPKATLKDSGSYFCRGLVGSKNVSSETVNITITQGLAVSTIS
Description: as §1, §2

FcRn = target: T6, FcRn (Homo sapiens, UniProt P55899); assay: as above; details: SPR
T6 construct: soluble ectodomains of FcR from R&D Systems; purchased R&D Systems 8639-FC-050
T6 sequence (P55899 24-297 limits assumed): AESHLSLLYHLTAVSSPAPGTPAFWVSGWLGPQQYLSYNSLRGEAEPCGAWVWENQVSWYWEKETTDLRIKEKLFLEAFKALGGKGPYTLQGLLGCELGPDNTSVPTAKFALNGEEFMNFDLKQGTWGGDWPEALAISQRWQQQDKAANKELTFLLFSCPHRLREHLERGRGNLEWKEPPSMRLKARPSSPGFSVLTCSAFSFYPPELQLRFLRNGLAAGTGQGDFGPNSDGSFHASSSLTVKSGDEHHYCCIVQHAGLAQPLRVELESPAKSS
T6 sequence (P61769 21-119 partner): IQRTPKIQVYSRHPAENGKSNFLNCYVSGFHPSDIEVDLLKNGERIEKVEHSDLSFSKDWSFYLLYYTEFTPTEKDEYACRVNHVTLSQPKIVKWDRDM
Description: as §1, §2

## hDectin1-Fc: soluble dimeric fusion protein: human Dectin-1 receptor polypeptide (aa 73-247) fused to human IgG1 Fc via hinge; SEQ ID NO: 5
SC5314 Candida albicans; 0.05 mg hDectin1-Fc, subacute inoculum of 0.05 million Candida albicans cells
  survival curve: prominent shift in the survival curve
SC5314 Candida albicans; 2 mg hDectin1-Fc i.p., 0.05 million Candida albicans i.v. (FIG. 15D)
  survival (rate of death vs untreated group): rate of death was greater than the corresponding untreated group
SC5314 Candida albicans; 4 mg hDectin1-Fc i.p., 0.1 million Candida albicans i.v. (FIG. 15C)
  survival (rate of death vs untreated group): rate of death was greater than the corresponding untreated group
SC5314 Candida albicans; hDectin1-Fc at the appropriate dose, passive immunization 2 hours before challenge
  survivability: able to improve survivability
SC5314 Candida albicans; lethal infection model, 0.5 million Candida albicans cells (FIG. 15A)
  survival, 1 mg dose versus 2 mg dose: marginal optimal therapeutic effect of the 1 mg dose over the 2 mg dose
FcγRI
  KD for FcγRI compared with Herceptin: moderately weaker binding
FcγRI; steady state
  binding to FcγRI (Binding Constant KD screen): able to interact with and bind to
FcγRIIIa
  KD for FcγRIIIa compared with Herceptin: moderately weaker binding
FcγRIIIa; steady state
  binding to FcγRIIIa (Binding Constant KD screen): able to interact with and bind to
FcγRIIa
  binding to FcγRIIa (Binding Constant KD screen): bind to FcγRI, FcγRIIIa and FcRn only
FcγRIIb
  binding to FcγRIIb (Binding Constant KD screen): bind to FcγRI, FcγRIIIa and FcRn only
FcγRIIIb
  binding to FcγRIIIb (Binding Constant KD screen): bind to FcγRI, FcγRIIIa and FcRn only
FcRn
  KD for FcRn compared with Herceptin: moderately weaker binding
FcRn; steady state
  binding to FcRn (Binding Constant KD screen): able to interact with and bind to
